# Measured values as given in PMC7954794, “Protein context shapes the specificity of SH3 domain-mediated interactions in vivo” (Nature Communications, 2021).
# Tests used:
# Type in all cases: cell-based, Saccharomyces cerevisiae
# Hua2 and Lsb3 = assay: Quadrant classification of Abp1 SH3 variants from DMS scores (Abp1-Hua2 and Abp1-Lsb3 DHFR-PCA); details: class by effect on Hua2 and Lsb3 PPIs (Dest. both / Dest. Hua2 / Dest. Lsb3 / Neutral)
# Lsb3 = assay: Deep mutational scanning of Abp1 SH3, Abp1-Lsb3 DHFR-PCA (DMS score); details: for lsb3sc (DMS score): Frequencies scaled to the synonymous mutation distribution (DMS score), Lsb3; for LSB3_MTX2: frequencies normalized to the reference condition, Abp1-Lsb3, MTX2
# Description: Single site mutation libraries were generated by a PCR-based saturation mutagenesis method[50] as described below. The mutagenesis was carried out on the pUC19 plasmid containing the SH3 domain sequence of ABP1 flanked by its homology arms subsequently used in the CRISPR mediated genomic re-integration. We used oligos containing degenerate nucleotides (NNN) to carry out the mutagenesis at each codon of the domain sequence. In the first step of the two-step PCR procedure (short PCR step), an amplicon was generated with an oligo containing the degenerate codon which is positioned within the domain sequence, and another oligo lying outside Abp1 sequence in the plasmid. Short PCR step was carried out with the following settings: 5 min at 95 °C, 35 cycles: 20 s at 98 °C, 15 s at 60 °C, 30 s at 72 °C, and a final extension of 1 min at 72 °C. The amplicon generated in this step was used as a mega primer in the second step (long PCR step) to amplify the whole plasmid. Long PCR step was carried out with the following settings: 5 min at 95 °C, 22 cycles: 20 s at 98 °C, 15 s at 68 °C, 3 min 30 s at 72 °C, and a final extension of 5 min at 72 °C. The long PCR product was digested for 2 h at 37 °C with DpnI. The digestion product was then transformed into E. coli MC1061 competent cells. In order to obtain most of the 64 possible codons, we recovered ~1000 colonies from each plate to retrieve the plasmid single mutant libraries. Saturation mutagenesis was carried out in a codon-position-wise manner. Mutants at each position were stored separately. Library quality control was assessed by amplifying the purified plasmid DNA preparations by PCR followed by Illumina sequencing as described below. The genomic insertion of the mutant libraries (one library per amino acid position) was performed by targeting the stuffer sequence in the ABP1 SH3-deleted strain as described in the strain construction section. ABP1 SH3-deleted yeast competent cells were co-transformed with pCAS containing the stuffer-specific gRNA and PCR amplified ABP1 SH3 single position mutated libraries from the pUC19 preparations. As for the library generation, ~1000 colonies from each plate were retrieved. Glycerol stocks of yeast cells were kept for each position (58 different stocks corresponding to the 58 amino acid positions of Abp1 SH3). The stocks were also validated by Illumina sequencing (see below).
# Liquid DHFR-PCA experiments were performed following the generation of the ABP1 SH3 single position mutated yeast strains and were performed in biological independent duplicates. An overnight culture was started in YPD + NAT by adding the same number of cells from each yeast mutant strain (master pool). Then, the master pool and Hua2-DHFR F[3] or Lsb3-DHFR F[3] preys strains were mixed in YPD (2:1) for mating and incubated for 8 h at 30 °C. Diploid cells were selected the first time by transferring the mixture in a YPD + NAT + HPH (OD 0.5) culture for 16 h at 30 °C. The next day, the first diploid selection was transferred in SC complete pH 6.0 + NAT + HPH at 0.5 OD and the culture was grown for 24 h at 30 °C. The validation of the yeast mutant libraries was done the next day with a fraction of the diploid cells (first DHFR-PCA experiment time point without PCA selection, reference condition S2) by amplifying ABP1 SH3 genomic sequence followed by Illumina sequencing as described in the section below. Following the selection, diploid cells OD was read using a TECAN Infinite F200 Pro, and dilutions to 0.1 OD in PCA selection media without agar in a 50 mL tube was done. Tubes were incubated at 30 °C for 72 h (second-time point of the DHFR-PCA experiment, first PCA selection). A fraction of the cells (5U OD) was collected for Illumina sequencing. The cells from the first PCA step were grown for a second PCA selection step using the same procedures. […]
# Hua2 = assay: Deep mutational scanning of Abp1 SH3, Abp1-Hua2 DHFR-PCA (DMS score); details: for hua2sc (DMS score): Frequencies scaled to the synonymous mutation distribution (DMS score), Hua2; for HUA2_MTX2: frequencies normalized to the reference condition, Abp1-Hua2, MTX2
# How it was run: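 Saturation mutagenesis (NNN per codon) of Abp1 SH3, reintegrated at the genomic locus in yeast and mated with Hua2- or Lsb3-DHFR F[3] prey strains. Diploids underwent two rounds of liquid DHFR-PCA selection (72 h each, 30 °C), in biological duplicate. Mutant abundance was tracked by Illumina sequencing against the pre-selection reference.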
# Sla1-GFP foci = assay: Live imaging of endocytosis, Sla1-GFP foci tracking (Fig. 4E-H, S5E-I); details: for mean effective distance towards centroid: n 3286
# Description: Overnight cultures of Sla1-GFP cells were diluted to an OD600 of 0.15 and grown in synthetic complete medium without tryptophan until they reached an OD600 of ~0.4–0.5 at 30 °C. The cells were then seeded on concanavalin A 0.05 mg/mL (Millipore Sigma) coated 8-well glass-bottom chamber slides (Sarstedt). Image acquisition was performed using a Perkin Elmer UltraVIEW confocal spinning disk unit attached to a Nikon Eclipse TE2000-U inverted microscope equipped with a Plan Apochromat DIC H 100×/1.4 oil objective (Nikon), and a Hamamatsu Orca Flash 4.0 LT + camera. Imaging was done at 25 °C in an environmental chamber. The software NIS-Elements (Nikon) was used for image capture. For each field, one brightfield and a series of fluorescence (GFP) images were taken. Cells were excited with a 488 nm laser and emission was filtered with a 530/630 nm filter. GFP time laps were acquired continuously at a rate of 1 frame/sec for 3 min.
# Bright-field images were used to segment cells using YeastSpotter[60]. Cells were filtered based on circularity, solidity, and the normalized difference between minor and major axis lengths to remove poorly detected cells. Out-of-focus cells were also filtered out based on size and brightness. The centroids of the segmented cells were used to identify the locations of each cell in the image using Scikit-Image[61]. The location of each cell was used to isolate individual cell time-frames of fluorescence (GFP) images. Each cell time frame of the fluorescence images was processed through a python-based single-particle tracking tool—Trackpy[62]. Trackpy detected the locations of Sla1-GFP positive foci in each frame and linked them together to provide particle-wise trajectories. Trajectories detected in less than ten frames were considered spurious and were filtered out. Segments of the trajectories spuriously indicating movement of the particles back to the cell membrane were trimmed. The preprocessed trajectories of the particles were then used for the calculation of distances using the spatial distance module of “SciPy”[63]. The python-based code used for the analysis of microscopy images is included in the endocytosis module of “htsimaging” package.
# [1] = Fig4H,S5G, SLA1 SH3-shuffled or -deleted strain
Molecule,quadrant (Hua2 and Lsb3),lsb3sc (DMS score) (Lsb3),LSB3_MTX2 (Lsb3),hua2sc (DMS score) (Hua2),HUA2_MTX2 (Hua2),complete (Sla1-GFP foci; [1]),incomplete (Sla1-GFP foci; [1]),mean effective distance towards centroid (Sla1-GFP foci; time 0),mean effective distance towards centroid (Sla1-GFP foci; time 1),mean effective distance towards centroid (Sla1-GFP foci; time 2),mean effective distance towards centroid (Sla1-GFP foci; time 3),mean effective distance towards centroid (Sla1-GFP foci; time 4)
"ABP1 E13E (protein, UniProt P15891 2-592, looked up, synonymous codon change E13E) Actin-binding protein: ALEPIDYTTHSREIDAEYLKIVRGSDPDTTWLIISPNAKKEYEPESTGSSFHDFLQLFDETKVQYGLARVSPPGSDVEKIIIIGWCPDSAPLKTRASFAANFAAVANNLFKGYHVQVTARDEDDLDENELLMKISNAAGARYSIQTSSKQQGKASTPPVKKSFTPSKSPAPVSKKEPVKTPSPAPAAKISSRVNDNNDDDDWNEPELKERDFDQAPLKPNQSSYKPIGKIDLQKVIAEEKAKEDPRLVQKPTAAGSKIDPSSDIANLKNESKLKRDSEFNSFLGTTKPPSMTESSLKNDDDKVIKGFRNEKSPAQLWAERKAKQNSGNAETKAEAPKPEVPEDEPEGEPDVKDLKSKFEGLAASEKEEEEMENKFAPPPKKSEPTIISPKPFSKPQEPVKAEEAEQPKTDYKKIGNPLPGMHIEADNEEEPEENDDDWDDDEDEAAQPPLPSRNVASGAPVQKEEPEQEEIAPSLPSRNSIPAPKQEEAPEQAPEEEIEEEAEEAAPQLPSRSSAAPPPPPRRATPEKKPKENPWATAEYDYDAAEDNELTFVENDKIINIEFVDDDWWLGELEKDGSKGLFPSNYVSLGN",Neutral,-0.3311,1.169,-0.2784,1.334,,,,,,,
"ABP1 D14D (protein, UniProt P15891 2-592, looked up, synonymous codon change D14D) Actin-binding protein: ALEPIDYTTHSREIDAEYLKIVRGSDPDTTWLIISPNAKKEYEPESTGSSFHDFLQLFDETKVQYGLARVSPPGSDVEKIIIIGWCPDSAPLKTRASFAANFAAVANNLFKGYHVQVTARDEDDLDENELLMKISNAAGARYSIQTSSKQQGKASTPPVKKSFTPSKSPAPVSKKEPVKTPSPAPAAKISSRVNDNNDDDDWNEPELKERDFDQAPLKPNQSSYKPIGKIDLQKVIAEEKAKEDPRLVQKPTAAGSKIDPSSDIANLKNESKLKRDSEFNSFLGTTKPPSMTESSLKNDDDKVIKGFRNEKSPAQLWAERKAKQNSGNAETKAEAPKPEVPEDEPEGEPDVKDLKSKFEGLAASEKEEEEMENKFAPPPKKSEPTIISPKPFSKPQEPVKAEEAEQPKTDYKKIGNPLPGMHIEADNEEEPEENDDDWDDDEDEAAQPPLPSRNVASGAPVQKEEPEQEEIAPSLPSRNSIPAPKQEEAPEQAPEEEIEEEAEEAAPQLPSRSSAAPPPPPRRATPEKKPKENPWATAEYDYDAAEDNELTFVENDKIINIEFVDDDWWLGELEKDGSKGLFPSNYVSLGN",Neutral,-0.6602,0.8401,0.002961,1.616,,,,,,,
"Sla1 1|2|3: WT Sla1 (Sla1-GFP in imaging) (protein, UniProt P32790 1-1244, looked up, GFP tag in imaging) Actin cytoskeleton-regulatory …: MTVFLGIYRAVYAYEPQTPEELAIQEDDLLYLLQKSDIDDWWTVKKRVIGSDSEEPVGLVPSTYIEEAPVLKKVRAIYDYEQVQNADEELTFHENDVFDVFDDKDADWLLVKSTVSNEFGFIPGNYVEPENGSTSKQEQAPAAAEAPAATPAAAPASAAVLPTNFLPPPQHNDRARMMQSKEDQAPDEDEEGPPPAMPARPTATTETTDATAAAVRSRTRLSYSDNDNDDEEDDYYYNSNSNNVGNHEYNTEYHSWNVTEIEGRKKKKAKLSIGNNKINFIPQKGTPHEWSIDKLVSYDNEKKHMFLEFVDPYRSLELHTGNTTTCEEIMNIIGEYKGASRDPGLREVEMASKSKKRGIVQYDFMAESQDELTIKSGDKVYILDDKKSKDWWMCQLVDSGKSGLVPAQFIEPVRDKKHTESTASGIIKSIKKNFTKSPSRSRSRSRSKSNANASWKDDELQNDVVGSAAGKRSRKSSLSSHKKNSSATKDFPNPKKSRLWVDRSGTFKVDAEFIGCAKGKIHLHKANGVKIAVAADKLSNEDLAYVEKITGFSLEKFKANDGSSSRGTDSRDSERERRRRLKEQEEKERDRRLKERELYELKKARELLDEERSRLQEKELPPIKPPRPTSTTSVPNTTSVPPAESSNNNNSSNKYDWFEFFLNCGVDVSNCQRYTINFDREQLTEDMMPDINNSMLRTLGLREGDIVRVMKHLDKKFGRENIASIPTNATGNMFSQPDGSLNVATSPETSLPQQLLPQTTSPAQTAPSTSAETDDAWTVKPASKSESNLLSKKSEFTGSMQDLLDLQPLEPKKAAASTPEPNLKDLEPVKTGGTTVPAAPVSSAPVSSAPAPLDPFKTGGNNILPLSTGFVMMPMITGGDMLPMQRTGGFVVPQTTFGMQSQVTGGILPVQKTGNGLIPISNTGGAMMPQTTFGAAATVLPLQKTGGGLIPIATTGGAQFPQTSFNVQGQQQLPTGSILPVQKTANGLISANTGVSMPTVQRTGGTMIPQTSFGVSQQLTGGAMMTQPQNTGSAMMPQTSFNAVPQITGGAMMPQTSFNALPQVTGGAMMPLQRTGGALNTFNTGGAMIPQTSFSSQAQNTGGFRPQSQFGLTLQKTGGIAPLNQNQFTGGAMNTLSTGGVLQQQQPQTMNTFNTGGVMQELQMMTTFNTGGAMQQPQMMNTFNTDGIMQQPQMMNTFNTGGAMQQPQQQALQNQPTGFGFGNGPQQSRQANIFNATASNPFGF",,,,,,23.1408,3.31,0,1.1628,1.132,2.413,3.293
